Experimental findings from publication PMC5507773, “Argonaute Utilization for miRNA Silencing Is Determined by Phosphorylation-Dependent Recruitment of LIM-Domain-Containing Proteins” (Cell Reports, 2017) are described below.

The target in this assay is T1, purified un-tagged AGO2 (hAGO2) (human, UniProt Q9UKV8 1-859).
T1 construct: AGO2, human, un-tagged; also called un-tagged crystallography grade hAGO2; source: purified, un-tagged, crystallography grade (De and Macrae, 2011)
Kind of assay: pull-down; MBP direct binding assay: purified un-tagged hAGO2 with MBP-VO, MBP-LIMD1 or MBP-LIMD1 140-166. Particulars: both partners purified.

T1 sequence (Q9UKV8 whole entry): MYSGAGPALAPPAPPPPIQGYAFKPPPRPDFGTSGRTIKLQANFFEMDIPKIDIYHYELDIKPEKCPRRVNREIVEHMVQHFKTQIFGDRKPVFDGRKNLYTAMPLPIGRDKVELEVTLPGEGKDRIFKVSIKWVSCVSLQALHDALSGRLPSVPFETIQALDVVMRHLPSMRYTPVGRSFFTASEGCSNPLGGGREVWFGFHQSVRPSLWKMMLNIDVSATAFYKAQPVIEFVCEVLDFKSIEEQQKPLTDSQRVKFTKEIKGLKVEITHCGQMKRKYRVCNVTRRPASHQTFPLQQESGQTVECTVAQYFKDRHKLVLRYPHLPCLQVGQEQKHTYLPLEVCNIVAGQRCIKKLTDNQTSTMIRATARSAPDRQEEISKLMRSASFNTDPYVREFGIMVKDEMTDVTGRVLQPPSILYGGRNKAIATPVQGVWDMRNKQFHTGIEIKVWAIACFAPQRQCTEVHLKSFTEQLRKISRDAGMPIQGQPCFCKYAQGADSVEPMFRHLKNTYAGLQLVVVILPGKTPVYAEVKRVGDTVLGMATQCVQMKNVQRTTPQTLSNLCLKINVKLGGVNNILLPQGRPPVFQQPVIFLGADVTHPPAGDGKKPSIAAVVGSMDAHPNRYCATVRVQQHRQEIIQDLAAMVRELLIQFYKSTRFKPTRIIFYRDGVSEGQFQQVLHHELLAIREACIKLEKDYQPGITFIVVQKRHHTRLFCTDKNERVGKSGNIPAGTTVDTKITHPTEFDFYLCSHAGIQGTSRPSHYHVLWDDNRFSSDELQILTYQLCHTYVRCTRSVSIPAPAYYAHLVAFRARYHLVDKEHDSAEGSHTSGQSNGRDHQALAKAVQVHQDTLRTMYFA

B1: MBP-LIMD1 140–166 (AB motif) (domain or fragment, UniProt Q9UGP4 140-166, looked up)
chain: GTRHGSQDCGSRESLATSEMSAFHQPG
notes: source: recombinant, purified (details in Supplemental Experimental Procedures)
On to B1, for which the binding result is “binds”.

B2: maltose binding protein (MBP)-tagged full-length LIMD1 (natural protein)
chain: not shown
notes: LIMD1, full length; also called MBP-LIMD1; MBP-LIMD1 full-length; source: recombinant, purified (details in Supplemental Experimental Procedures)
Consider B2, for which the binding result is reported as “binds”.
